The results in this text go back to US20260209365A1, “ANTI-COMMON GAMMA CHAIN PROTEINS AND COMPOSITIONS OF MATTER” (SINOMAB BIOSCIENCE LIMITED, priority 2023, published 2026).

In test [1] the test system is IL-9 induced ERK phosphorylation. Description: Western blot of IL-9 induced ERK phosphorylation in Jurkat T cells. The test is classed as cell-based, human. The note with it: humanized antibodies; 33 nM (5 μg/ml). On the technique in general: A western blot detects proteins with antibodies after separation by electrophoresis.
In another test the test system is BCL-2 expression. Description: IL-7 induced BCL-2 expression in HPB-ALL, flow cytometry. The test is classed as cell-based, human. Conditions: humanized antibodies, 33 nM, vs ritlecitinib. The procedure:
Several assays, such as were proposed to study cell survival of HPB-ALL from literature [Ribeiro et al., Blood Adv., 2018; 2 (17): 2199-2213] was measured in terms of BCL2 (anti-apoptotic marker) expressing cells by flow cytometry. In brief, HPB-ALL was pre-treated with antibodies or inhibitors for an hour before stimulated with 50 ng/ml IL-7 for 3 days. Cells were harvested and stained with FITC-conjugated BCL-2 antibody (Biolegend) for flow cytometry analysis.

In test [2] the test system is CD127 internalization and degradation. The test can be described thus: IL-7 induced CD127 internalization and degradation in HPB-ALL, flow cytometry. The test is classed as cell-based, human. The note with it: humanized antibodies, 33 nM, vs ritlecitinib. The text has this:
Specific methods for IL-7 function were developed in HPB-ALL [Henriques et al., Blood., 2010; 115 (16): 3269-77]. IL-7 could trigger the internalization of its own receptor, CD127 (or IL-7Rai), into the cell compartment for degradation. As the CD127 degradation depends on the JAK3 activated status after IL-7 stimulation, blockade of γc binding to CD127 and downstream signaling pathway should stop CD127 internalization and degradation in HPB-ALL.
After antibody or inhibitor pretreatment, HPB-ALL was challenged with 50 ng/ml IL-7 for 3 hours. Surface CD127 expression was performed in live cells while total CD127 expression was investigated in PFA fixed and permeabilized cells. Cells were stained with APC-conjugated CD127 antibody for flow cytometry analysis.
In general terms: A flow cytometer gives signals particle by particle.

The target in test [3] is T1, native γc proteins from human (Homo sapiens, UniProt P31785).
T1 construct: transfected with plasmid expressing full length γc protein from human; expressed in transfected cells; host or cells: HEK-293
T1 sequence (P31785 23-369): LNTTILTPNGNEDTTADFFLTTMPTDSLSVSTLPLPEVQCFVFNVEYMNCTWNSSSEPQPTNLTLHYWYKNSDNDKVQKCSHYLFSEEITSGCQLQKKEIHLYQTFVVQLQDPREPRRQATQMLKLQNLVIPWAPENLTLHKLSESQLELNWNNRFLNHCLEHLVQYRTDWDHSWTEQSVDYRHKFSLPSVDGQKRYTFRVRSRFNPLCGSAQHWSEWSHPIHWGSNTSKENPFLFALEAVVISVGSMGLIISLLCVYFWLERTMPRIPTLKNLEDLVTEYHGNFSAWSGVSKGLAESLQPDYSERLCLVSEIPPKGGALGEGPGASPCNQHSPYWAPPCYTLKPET
Description: Binding to native human γc on transfected HEK-293 cells, flow cytometry. The test is classed as cell-based. Conditions: FITC-labelled antibody 33 nM (5 μg/ml). The method, then:
(§1) The binding specificities of humanized anti-γc antibodies to native γc proteins were further evaluated by […] binding assay. In brief, human HEK-293 cells were transfected with plasmid expressing full length γc protein from human, rhesus, cynomolgus or common marmoset. Two days later, transfected cells or non-transfected controls were incubated with FITC-conjugated hSM-05A on ice for an hour before analysis by flow cytometry.

Test [4] has as its system native γc proteins from common marmoset. The test can be described thus: Binding to native common marmoset γc on transfected HEK-293 cells, flow cytometry. The test is classed as cell-based. Conditions: FITC-labelled antibody 33 nM (5 μg/ml). The method, then: as §1
The subject of the next test is Jurkat T cells. Description: IL-9 rescue of ceramide induced Jurkat cell death, WST-8. The test is classed as cell-based, human. Conditions: ceramide 50 μM; IL-9 50 ng/ml; three days. The method, then:
Jurkat T cells were pretreated with anti-γc antibodies or ritlecitinib before the application of anti-tumor ceramide (50 μM) and IL-9 (50 ng/ml) for three days. To evaluate cell survival, 10 μl WST-8 reagent was added to each well and incubated for 4 hours before spectrophotometer measurement.
In general terms: Tetrazolium dyes change colour on reduction, which living cells bring about.

A further test has as its system rat γc. The test can be described thus: BLI binding kinetics to rat γc protein.
Chain of rat γc (as listed by the source): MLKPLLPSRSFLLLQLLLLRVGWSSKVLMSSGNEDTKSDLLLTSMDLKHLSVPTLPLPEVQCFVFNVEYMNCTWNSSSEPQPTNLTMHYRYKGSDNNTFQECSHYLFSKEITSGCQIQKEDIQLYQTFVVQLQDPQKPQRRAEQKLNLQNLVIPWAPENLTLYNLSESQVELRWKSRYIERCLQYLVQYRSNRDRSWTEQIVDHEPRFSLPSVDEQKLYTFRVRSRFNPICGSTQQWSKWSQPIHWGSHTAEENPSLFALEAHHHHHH

Chain of native γc proteins from common marmoset (as listed by the source): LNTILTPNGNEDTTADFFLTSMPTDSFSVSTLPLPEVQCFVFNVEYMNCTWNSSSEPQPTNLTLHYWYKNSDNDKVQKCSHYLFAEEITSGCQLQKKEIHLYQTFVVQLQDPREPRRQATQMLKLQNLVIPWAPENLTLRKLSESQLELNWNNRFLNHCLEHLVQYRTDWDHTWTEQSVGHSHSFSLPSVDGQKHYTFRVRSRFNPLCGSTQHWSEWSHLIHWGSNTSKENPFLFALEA

B1: hSM-05A: full-length humanized anti-γc antibody derived from SM-05A by framework patching (antibody, V domains shown)
VH: QVQLVQSGAEVLKPGASVKVSCKASGYTFTEYTMHWVKQARGQRLEWIGGIDPYNGGATYNQRFKGKATLTTDTSTSTAYMELRNLRSDDTAVYYCARRRLYYGNALDYWGQGTLVTVSS
VL: DIVMTQSPLSLPVTPGEQASISCRSSQSLVHSNGNTYLHWYLQKPGQSPQLLIYKVSSRFSGVPDRFSGSGSGTDFTLKISRVEAEDVGVYFCSQTTHVPFTFGSGTKLEIKR
As to B1, the “suppression of IL-9 induced ERK phosphorylation” value in test [1] is reported as “better suppression to IL-9 induced ERK phosphorylation than hSM-05E”. Further, the “suppression of IL-7 induced BCL-2 upregulation” value in the test with BCL-2 expression was “better suppression to IL-7 induced BCL-2 upregulation and CD127 degradation than ritlecitinib”. The “suppression of IL-7 induced CD127 degradation” value in test [2] is “better suppression to IL-7 induced BCL-2 upregulation and CD127 degradation than ritlecitinib”. Besides, in test [3], the “binding to native human γc on HEK-293” value was “could bind to the native γc proteins from humans and common marmoset”. Besides, the “binding to native common marmoset γc on HEK-293” value in test [4] is “could bind to the native γc proteins from humans and common marmoset”. In the test with Jurkat T cells, the “suppression of IL-9 rescue of ceramide induced Jurkat cell death” value is “could suppress the IL-9 effect”.

B2: hSM-05E: full-length humanized anti-γc antibody derived from SM-05E by framework patching (antibody, V domains shown)
VH: QVQLVQSGAEVLKPGASVKVSCKASGYTFTEYTMHWVKQARGQRLEWIGGIDPNTGGVTYNQKFKGKATLTTDTSTSTAYMELRNLRSDDTAVYYCARRRRYYGYALDYWGQGTLVTVSS
VL: DIVMTQSPLSLPVTPGEQASISCRSSQSIVHSNGNTYLEWYLQKPGQSPQLLIYKVSNRFSGVPDRFSGSGSGTDFTLKISRVEAEDVGVYFCSQSTHVPFMFGSGTKLEIKR
As to B2, in the test with rat γc, the “Ka” value turned out to be 71000 M⁻¹ s⁻¹ and the “Kdis” value is 0.00208 s⁻¹.
